In US20040186056A1 (SANFORD BURNHAM MEDICAL RESEARCH INSTITUTE, published 2004):

B1: phage expressing the HMGN2 exon 3 sequence PQRRSARLSA (SEQ ID NO: 11) (other)
chain: PQRRSARLSA
notes: not shown: T7 phage coat protein fusion partner

Key:
[1] = target: T1, cell surface nucleolin on intact tumor cells (MDA-MB-435, HL-60) (human, UniProt P19338 2-710); experiment: phage binding to tumor cells, pfu count; the filing names nucleolin as the receptor only later
T1 construct: Native nucleolin on human tumor cell lines; also called cell surface-expressed nucleolin
Source text: Phage displaying a set of sequences corresponding to fragments of the amino-terminal portion of HMGN2 (SEQ ID NO: 5) were constructed to localize the region responsible for cell binding and in vivo homing. Fragments were designed to follow the exon/intron boundaries of the HMGN2 gene. Inserts encoding the indicated fragments were amplified from the full length HMGN2 phage clone by PCR, purified, digested and directionally cloned into the T7 415-1 and 10-3 vectors. Phage were packaged, amplified and sequenced according to the manufacturer's instructions. Phage preparations were then tested for binding to primary cells obtained from HL-60 xenograft tumors. After a 1 hour incubation at 4° C., cells were washed, and bound phage quantified. […] Furthermore, phage displaying the N-terminal portion of the active fragment SEQ ID NO: 9, which corresponds to exon 3 of the HMGN2 gene, were prepared. These phage expressing the sequence […] (SEQ ID NO: 11) bound to tumor cells 90-fold more than non-recombinant phage.
The phage binding assay was performed essentially as follows. Attachment of phage to cells was quantified by incubating 1×10⁸ pfu of phage displaying SEQ ID NO: 9 for 60 minutes with 1×10⁶ HL-60 cells at 4° C. in Tris-buffered saline with 1 mM Ca⁺² and 1 mM MgCl₂. […] Bound phage were quantified by plating and counting pfu.

[2] = target: T2, nucleolin (110-kDa protein of MDA-MB-435 cells, in cell extracts and inside cells) (human, UniProt P19338 2-710); experiment: affinity chromatography of MDA-MB-435 cell extract on peptide matrix, SDS gel, mass spectrometry
T2 construct: also called 110 kDa band; full-length nucleolin
Method: 276:48588-48595 (2001). Briefly, 6×10⁸ MDA-MB-435 cells grown in RPMI 1640 medium with 10% fetal calf serum were pelleted and lysed in 60 ml of RIPA buffer (1% Triton X-100, 0.5% deoxycholic acid, 0.1% SDS, 10 mM Tris-HCl pH 7.6, 150 mM NaCl, and 1% Protease Inhibitor Cocktail for Mammalian Cells; SIGMA). […] Matrix beads were washed three times with IP-wash buffer (0.025% Triton X-100, 50 mM Tris-HCl pH 8.4, 150 mM NaCl, 1 mM CaCl₂, and 0.02% azide), two times with 25 mM Tris-HCl pH 8.4/250 mM NaCl, and eluted with 30 μl of SDS gel sample buffer. Affinity-purified proteins were reduced with 50 mM DTT before being separated on an 8-20% polyacrylamide gel and visualized by Colloidal Blue staining (Invitrogen; Carlsbad, Calif.). Bands that appeared in the peptide SEQ ID NO: 9 eluate, but not in control eluate, were cut out, digested with trypsin and analyzed by mass spectroscopy using matrix-assisted laser desorption ionization-time of flight analysis (Voyager DE-PRO, Applied Biosystems; Foster City, Calif.). Peptide samples were prepared using an alpha-cyano-4-hydroxycinnamic acid (HCCA)/nitrocellulose matrix.

T2 sequence (P19338 other isoform, or with tags, fused parts or gaps limits assumed): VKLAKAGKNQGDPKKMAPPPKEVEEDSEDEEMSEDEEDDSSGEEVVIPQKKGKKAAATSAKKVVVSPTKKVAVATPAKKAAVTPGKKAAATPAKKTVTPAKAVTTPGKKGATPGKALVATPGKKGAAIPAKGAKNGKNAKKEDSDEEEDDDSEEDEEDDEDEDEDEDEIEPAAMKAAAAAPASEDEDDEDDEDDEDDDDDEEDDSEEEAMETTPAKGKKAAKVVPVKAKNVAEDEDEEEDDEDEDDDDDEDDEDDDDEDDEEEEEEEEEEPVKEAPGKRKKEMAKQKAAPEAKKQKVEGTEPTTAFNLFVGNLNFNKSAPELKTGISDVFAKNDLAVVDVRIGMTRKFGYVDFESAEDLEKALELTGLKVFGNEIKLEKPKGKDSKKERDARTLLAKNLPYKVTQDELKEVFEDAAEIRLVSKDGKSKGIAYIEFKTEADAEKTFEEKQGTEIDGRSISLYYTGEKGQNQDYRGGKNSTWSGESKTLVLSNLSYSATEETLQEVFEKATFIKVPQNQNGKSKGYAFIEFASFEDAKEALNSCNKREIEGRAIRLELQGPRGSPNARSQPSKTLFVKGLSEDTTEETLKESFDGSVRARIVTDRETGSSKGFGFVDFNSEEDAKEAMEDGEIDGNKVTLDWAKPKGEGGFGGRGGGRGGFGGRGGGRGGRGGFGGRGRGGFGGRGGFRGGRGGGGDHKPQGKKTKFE
T1 sequence (P19338 other isoform, or with tags, fused parts or gaps limits assumed): as above

Binder	fold binding over non-recombinant phage [1]	binding result [2]
B1	90 fold	
APKDKPAAVKERKKPAPKPRPQELRSKKAKPAPAS (also called control matrix) [control peptide APKDKPAAVKERKKPAPKPRPQELRSKKAKPAPAS (SEQ ID NO:20)]		no binding
